Laboratory results reported in patent publication US20200199241A1 (Chugai, published 2020).
Positions count from the first letter of the chain named. Numbers in names are those of the source.

T1: human FcγRIIa(H) (human, UniProt P12318 36-217)
T1 construct: also called FcgRIIaH; FcγRIIa type H
T1 sequence: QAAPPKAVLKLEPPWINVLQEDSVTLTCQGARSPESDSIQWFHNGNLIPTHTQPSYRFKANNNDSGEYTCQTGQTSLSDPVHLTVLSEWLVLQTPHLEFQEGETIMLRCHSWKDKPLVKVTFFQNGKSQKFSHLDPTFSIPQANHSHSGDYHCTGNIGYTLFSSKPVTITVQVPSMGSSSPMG

T2: human FcγRIIa(R) (human, UniProt P12318 36-217)
T2 construct: also called FcgRIIaR; FcγRIIa type R
T2 chain: T1 sequence with H133R

T3: human FcγRIIb (human, UniProt P31994 43-217, limits assumed)
T3 construct: also called FcgRIIb
T3 sequence: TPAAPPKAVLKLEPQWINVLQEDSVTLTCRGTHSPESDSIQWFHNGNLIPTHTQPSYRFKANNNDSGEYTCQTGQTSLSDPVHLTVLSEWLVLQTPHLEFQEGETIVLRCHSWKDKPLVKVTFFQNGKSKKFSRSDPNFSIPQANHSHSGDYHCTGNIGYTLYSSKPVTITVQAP

B1: GpH7-B3 variant G237Y/GpL16-k0 (antibody, human IgG1)
heavy: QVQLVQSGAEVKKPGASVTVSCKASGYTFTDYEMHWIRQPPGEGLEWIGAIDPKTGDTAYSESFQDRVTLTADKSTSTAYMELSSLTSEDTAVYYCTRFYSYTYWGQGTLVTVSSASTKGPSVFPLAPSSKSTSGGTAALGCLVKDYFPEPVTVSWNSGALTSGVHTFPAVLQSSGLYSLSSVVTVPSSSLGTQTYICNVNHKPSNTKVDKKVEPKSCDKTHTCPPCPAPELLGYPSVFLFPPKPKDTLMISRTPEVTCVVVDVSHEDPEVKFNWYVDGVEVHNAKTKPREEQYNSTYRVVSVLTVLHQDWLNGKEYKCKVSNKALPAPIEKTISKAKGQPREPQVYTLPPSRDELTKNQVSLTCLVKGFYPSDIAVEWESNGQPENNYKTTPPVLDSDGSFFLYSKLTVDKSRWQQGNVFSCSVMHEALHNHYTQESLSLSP
light: DIVMTQSPLSLPVTPGEPASISCQASESLVHSNRNTYLHWYLQKPGQSPQLLIYKVSNRFSGVPDRFSGSGSGTDFTLKISRVEAEDVGVYYCSQNTHVPPTFGQGTKVEIE
notes: copies: 2 + 2
B2: GpH7-B3 variant S239R/GpL16-k0 (antibody, human IgG1)
heavy: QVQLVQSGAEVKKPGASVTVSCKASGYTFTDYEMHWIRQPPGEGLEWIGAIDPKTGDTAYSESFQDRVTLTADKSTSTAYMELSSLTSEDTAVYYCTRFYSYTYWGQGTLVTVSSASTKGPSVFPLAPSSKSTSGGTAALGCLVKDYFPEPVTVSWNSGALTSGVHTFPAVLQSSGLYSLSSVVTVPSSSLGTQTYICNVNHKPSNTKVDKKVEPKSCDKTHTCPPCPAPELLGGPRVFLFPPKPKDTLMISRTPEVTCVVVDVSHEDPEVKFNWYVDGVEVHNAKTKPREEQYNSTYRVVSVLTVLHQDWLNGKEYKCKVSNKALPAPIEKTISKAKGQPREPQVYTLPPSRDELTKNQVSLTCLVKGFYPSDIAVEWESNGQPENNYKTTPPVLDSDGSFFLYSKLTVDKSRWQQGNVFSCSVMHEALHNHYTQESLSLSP
light: B1 light
notes: copies: 2 + 2
B3: GpH7-B3 variant D265G/GpL16-k0 (antibody, human IgG1)
heavy: not shown
light: B1 light
notes: copies: 2 + 2
B4: GpH7-B3 variant D265L/GpL16-k0 (antibody, human IgG1)
heavy: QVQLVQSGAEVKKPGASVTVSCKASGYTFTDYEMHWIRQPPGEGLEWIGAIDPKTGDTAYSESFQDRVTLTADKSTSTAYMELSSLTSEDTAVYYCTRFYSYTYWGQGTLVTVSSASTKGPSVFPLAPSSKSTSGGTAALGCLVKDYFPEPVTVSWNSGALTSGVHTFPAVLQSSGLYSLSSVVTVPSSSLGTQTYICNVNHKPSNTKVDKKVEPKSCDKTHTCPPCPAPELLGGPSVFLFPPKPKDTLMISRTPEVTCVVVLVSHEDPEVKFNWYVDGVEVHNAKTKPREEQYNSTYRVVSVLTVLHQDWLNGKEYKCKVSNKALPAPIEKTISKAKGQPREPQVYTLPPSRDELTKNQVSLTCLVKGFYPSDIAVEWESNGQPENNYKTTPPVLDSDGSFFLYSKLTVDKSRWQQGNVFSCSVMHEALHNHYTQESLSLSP
light: B1 light
notes: copies: 2 + 2
B5: GpH7-B3 variant D265Q/GpL16-k0 (antibody, human IgG1)
heavy: not shown
light: B1 light
notes: copies: 2 + 2
B6: GpH7-B3 variant D265K/GpL16-k0 (antibody, human IgG1)
heavy: not shown
light: B1 light
notes: copies: 2 + 2
B7: GpH7-B3 variant D265F/GpL16-k0 (antibody, human IgG1)
heavy: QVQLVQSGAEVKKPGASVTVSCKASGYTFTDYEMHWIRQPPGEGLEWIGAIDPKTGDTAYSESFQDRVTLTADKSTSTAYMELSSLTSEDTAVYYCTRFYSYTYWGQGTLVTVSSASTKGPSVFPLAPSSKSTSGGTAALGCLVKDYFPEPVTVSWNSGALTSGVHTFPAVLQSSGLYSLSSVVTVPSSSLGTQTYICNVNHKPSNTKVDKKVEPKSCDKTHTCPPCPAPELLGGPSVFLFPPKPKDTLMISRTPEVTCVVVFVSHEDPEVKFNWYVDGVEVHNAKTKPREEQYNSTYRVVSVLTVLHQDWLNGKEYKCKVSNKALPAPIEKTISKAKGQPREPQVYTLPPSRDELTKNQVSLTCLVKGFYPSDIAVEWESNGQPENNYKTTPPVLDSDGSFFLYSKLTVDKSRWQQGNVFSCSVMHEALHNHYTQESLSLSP
light: B1 light
notes: copies: 2 + 2
B8: GpH7-B3 variant D265Y/GpL16-k0 (antibody, human IgG1)
heavy: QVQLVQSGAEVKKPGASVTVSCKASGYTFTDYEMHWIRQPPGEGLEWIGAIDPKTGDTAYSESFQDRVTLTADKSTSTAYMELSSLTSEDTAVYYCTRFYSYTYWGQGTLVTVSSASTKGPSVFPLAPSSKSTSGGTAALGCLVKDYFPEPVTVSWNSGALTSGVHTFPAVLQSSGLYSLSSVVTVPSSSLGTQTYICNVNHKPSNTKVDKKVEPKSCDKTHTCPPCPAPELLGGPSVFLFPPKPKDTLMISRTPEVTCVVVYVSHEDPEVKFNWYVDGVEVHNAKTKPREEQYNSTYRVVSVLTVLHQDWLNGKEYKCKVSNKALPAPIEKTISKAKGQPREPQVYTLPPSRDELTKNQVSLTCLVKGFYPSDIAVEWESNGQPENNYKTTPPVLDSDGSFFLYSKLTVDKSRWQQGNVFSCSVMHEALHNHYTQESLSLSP
light: B1 light
notes: copies: 2 + 2
B9: GpH7-B3 variant S239W/GpL16-k0 (antibody, human IgG1)
heavy: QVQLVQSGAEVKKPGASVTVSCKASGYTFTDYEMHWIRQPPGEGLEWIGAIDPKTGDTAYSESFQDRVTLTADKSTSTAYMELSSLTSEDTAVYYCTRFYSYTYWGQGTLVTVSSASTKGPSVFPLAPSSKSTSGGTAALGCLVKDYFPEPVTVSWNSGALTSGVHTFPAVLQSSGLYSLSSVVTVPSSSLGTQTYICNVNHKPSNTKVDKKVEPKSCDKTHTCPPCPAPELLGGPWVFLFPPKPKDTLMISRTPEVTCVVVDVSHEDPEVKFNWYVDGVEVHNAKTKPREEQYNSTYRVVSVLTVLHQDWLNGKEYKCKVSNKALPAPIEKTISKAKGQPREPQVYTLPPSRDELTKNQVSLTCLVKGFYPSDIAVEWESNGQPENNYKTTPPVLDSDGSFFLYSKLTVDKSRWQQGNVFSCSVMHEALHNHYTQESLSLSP
light: B1 light
notes: copies: 2 + 2
B10: GpH7-B3 variant D265R/GpL16-k0 (antibody, human IgG1)
heavy: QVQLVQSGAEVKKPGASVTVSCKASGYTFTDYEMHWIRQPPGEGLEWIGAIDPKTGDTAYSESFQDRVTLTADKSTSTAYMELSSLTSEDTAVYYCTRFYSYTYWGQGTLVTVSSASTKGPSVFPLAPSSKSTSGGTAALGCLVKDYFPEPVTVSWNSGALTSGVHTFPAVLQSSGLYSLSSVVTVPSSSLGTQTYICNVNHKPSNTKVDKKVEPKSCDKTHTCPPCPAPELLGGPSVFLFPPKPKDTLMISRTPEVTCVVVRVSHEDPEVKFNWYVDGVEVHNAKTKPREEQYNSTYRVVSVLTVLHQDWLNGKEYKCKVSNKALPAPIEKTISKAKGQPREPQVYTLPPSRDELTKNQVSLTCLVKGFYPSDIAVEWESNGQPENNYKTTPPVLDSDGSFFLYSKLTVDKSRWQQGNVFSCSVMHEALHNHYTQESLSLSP
light: B1 light
notes: copies: 2 + 2
B11: GpH7-B3 variant D265N/GpL16-k0 (antibody, human IgG1)
heavy: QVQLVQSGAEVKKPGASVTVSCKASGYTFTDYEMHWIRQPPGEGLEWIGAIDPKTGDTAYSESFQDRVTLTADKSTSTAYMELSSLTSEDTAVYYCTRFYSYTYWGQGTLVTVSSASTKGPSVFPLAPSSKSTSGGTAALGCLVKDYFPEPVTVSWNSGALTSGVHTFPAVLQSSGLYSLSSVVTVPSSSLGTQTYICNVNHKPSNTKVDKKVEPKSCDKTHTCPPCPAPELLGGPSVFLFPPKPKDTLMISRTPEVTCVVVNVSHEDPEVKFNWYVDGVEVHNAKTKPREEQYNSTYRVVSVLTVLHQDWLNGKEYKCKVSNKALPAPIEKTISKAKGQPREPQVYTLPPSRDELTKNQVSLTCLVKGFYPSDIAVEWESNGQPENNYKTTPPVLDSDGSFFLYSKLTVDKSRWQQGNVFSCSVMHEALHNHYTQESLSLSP
light: B1 light
notes: copies: 2 + 2
B12: GpH7-B3 variant L234G/GpL16-k0 (antibody, human IgG1)
heavy: not shown
light: B1 light
notes: copies: 2 + 2
B13: GpH7-B3 variant D265T/GpL16-k0 (antibody, human IgG1)
heavy: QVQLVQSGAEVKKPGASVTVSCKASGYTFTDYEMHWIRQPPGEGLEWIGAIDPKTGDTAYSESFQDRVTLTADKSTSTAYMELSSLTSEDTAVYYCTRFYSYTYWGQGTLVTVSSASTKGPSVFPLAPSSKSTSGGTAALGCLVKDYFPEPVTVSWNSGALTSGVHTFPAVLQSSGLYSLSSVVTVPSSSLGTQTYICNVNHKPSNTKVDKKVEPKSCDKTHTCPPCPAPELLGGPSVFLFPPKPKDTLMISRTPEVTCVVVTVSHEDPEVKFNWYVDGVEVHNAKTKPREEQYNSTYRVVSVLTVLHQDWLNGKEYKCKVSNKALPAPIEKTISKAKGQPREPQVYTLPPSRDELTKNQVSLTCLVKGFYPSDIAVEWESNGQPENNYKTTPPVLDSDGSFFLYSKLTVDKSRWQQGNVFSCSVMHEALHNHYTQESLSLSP
light: B1 light
notes: copies: 2 + 2
B14: GpH7-B3 variant D265H/GpL16-k0 (antibody, human IgG1)
heavy: not shown
light: B1 light
notes: copies: 2 + 2
B15: GpH7-B3 variant E269W/GpL16-k0 (antibody, human IgG1)
heavy: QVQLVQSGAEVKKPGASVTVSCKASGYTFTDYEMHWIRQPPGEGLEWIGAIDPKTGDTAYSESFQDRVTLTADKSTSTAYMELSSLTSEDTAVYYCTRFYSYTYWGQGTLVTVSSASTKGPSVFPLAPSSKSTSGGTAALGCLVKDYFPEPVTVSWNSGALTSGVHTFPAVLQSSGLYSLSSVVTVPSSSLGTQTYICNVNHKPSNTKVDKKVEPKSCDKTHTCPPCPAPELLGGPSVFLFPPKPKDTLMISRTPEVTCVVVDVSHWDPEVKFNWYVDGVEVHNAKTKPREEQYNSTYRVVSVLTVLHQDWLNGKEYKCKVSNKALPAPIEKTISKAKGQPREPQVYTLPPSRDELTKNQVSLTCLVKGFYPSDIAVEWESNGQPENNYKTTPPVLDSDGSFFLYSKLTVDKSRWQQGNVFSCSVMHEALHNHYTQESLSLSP
light: B1 light
notes: copies: 2 + 2

These binders were tested against T4, human FcγRIIIa(F) (human, UniProt P08637 17-208, limits assumed) (assay: SPR (Biacore);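 also: antibody variants captured on sensor chip, Fcγ receptor flowed over at 25 °C, bound receptor normalized to amount of captured antibody, expressed relative to reference antibody set as 100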).
T4 construct: also called FcgRIIIaF; allotype F158
T4 sequence (P08637 other isoform, or with tags, fused parts or gaps limits assumed): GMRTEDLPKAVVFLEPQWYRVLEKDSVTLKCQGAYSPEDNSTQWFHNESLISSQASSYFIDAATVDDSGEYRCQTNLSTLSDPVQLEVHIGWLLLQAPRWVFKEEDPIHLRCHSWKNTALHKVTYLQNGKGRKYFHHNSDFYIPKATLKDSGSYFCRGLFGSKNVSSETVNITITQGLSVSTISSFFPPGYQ
Experimental: (§1) Interaction between each modified antibody and Fcγ receptor prepared in the manner described above was analyzed using the BIACORE™ T100 surface plasmon resonance system (GE Healthcare), BIACORE™ T200 surface plasmon resonance system (GE Healthcare), BIACORE™ A100 surface plasmon resonance system or BIACORE™ 4000 surface plasmon resonance system. HBS-EP+ (GE Healthcare) was used for the running buffer, and measurements were carried out at 25° C. The chips used were chips in which antigen peptides, Protein A (Thermo Scientific), Protein A/G (Thermo Scientific) or Protein L (ACTIGEN® protein (Alltech or BioVision) were immobilized on the Series S Sensor Chip CMS (GE Healthcare) or Series S Sensor Chip CM4 (GE Healthcare) by amine coupling, or chips in which preliminarily biotinylated antigen peptides were allowed to interact and then immobilized on the Series S Sensor Chip SA (certified) (GE Healthcare). The target antibodies were captured on these sensor chips, Fcγ receptor diluted with the running buffer was allowed to interact, followed by measurement of the amount of bound antibody. The amounts bound were compared between antibodies. However, since the amount of Fcγ receptor bound depends on the amount of captured antibody, the values used for comparison were first corrected by dividing the amount of Fcγ receptor bound by the captured amount of each antibody. Through reaction with 10 mM glycine-HCl at pH 1.5, the sensor chips were regenerated by washing off antibody captured on the sensor chips and used repeatedly.
(§2) Binding strength was evaluated according to the following method based on the results of analyzing the interaction with each FcγR. […] That value was then further multiplied by 100, and the resulting value was used as an indicator of relative binding activity to each FcγR.

Row | relative binding activity | Binder
1 | 0 % of GpH7-B3/GpL16-k0 | B1
2 | 1 % of GpH7-B3/GpL16-k0 | B2
3 | -1 % of GpH7-B3/GpL16-k0 | B3
4 | -1 % of GpH7-B3/GpL16-k0 | B4
5 | -1 % of GpH7-B3/GpL16-k0 | B5
6 | -2 % of GpH7-B3/GpL16-k0 | B6
7 | -2 % of GpH7-B3/GpL16-k0 | B7
8 | -1 % of GpH7-B3/GpL16-k0 | B8
9 | 19 % of GpH7-B3/GpL16-k0 | B9
10 | -1 % of GpH7-B3/GpL16-k0 | B10
11 | -1 % of GpH7-B3/GpL16-k0 | B11
12 | 11 % of GpH7-B3/GpL16-k0 | B12
13 | -2 % of GpH7-B3/GpL16-k0 | B13
14 | 0 % of GpH7-B3/GpL16-k0 | B14

These binders were tested against T1, human FcγRIIa(H) (assay: SPR (Biacore);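 also: antibody variants captured on sensor chip, Fcγ receptor flowed over at 25 °C, bound receptor normalized to amount of captured antibody, expressed relative to reference antibody set as 100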).
Experimental: as §1, §2

Row | relative binding activity | Binder
15 | 4 % of GpH7-B3/GpL16-k0 | B1
16 | 30 % of GpH7-B3/GpL16-k0 | B15
17 | 13 % of GpH7-B3/GpL16-k0 | B2
18 | 1 % of GpH7-B3/GpL16-k0 | B3
19 | 0 % of GpH7-B3/GpL16-k0 | B4
20 | 13 % of GpH7-B3/GpL16-k0 | B5
21 | 0 % of GpH7-B3/GpL16-k0 | B6
22 | 0 % of GpH7-B3/GpL16-k0 | B7
23 | 0 % of GpH7-B3/GpL16-k0 | B8
24 | 0 % of GpH7-B3/GpL16-k0 | B10
25 | 0 % of GpH7-B3/GpL16-k0 | B11
26 | 11 % of GpH7-B3/GpL16-k0 | B12
27 | 5 % of GpH7-B3/GpL16-k0 | B13
28 | 18 % of GpH7-B3/GpL16-k0 | B14

What follows are binders tested against T5, human FcγRIa (human, UniProt P12314 16-292, limits assumed) (assay: SPR (Biacore);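 also: antibody variants captured on sensor chip, Fcγ receptor flowed over at 25 °C, bound receptor normalized to amount of captured antibody, expressed relative to reference antibody set as 100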).
T5 construct: also called FcgRIa; FcγRI (CD64)
T5 sequence (P12314 16-292 limits assumed): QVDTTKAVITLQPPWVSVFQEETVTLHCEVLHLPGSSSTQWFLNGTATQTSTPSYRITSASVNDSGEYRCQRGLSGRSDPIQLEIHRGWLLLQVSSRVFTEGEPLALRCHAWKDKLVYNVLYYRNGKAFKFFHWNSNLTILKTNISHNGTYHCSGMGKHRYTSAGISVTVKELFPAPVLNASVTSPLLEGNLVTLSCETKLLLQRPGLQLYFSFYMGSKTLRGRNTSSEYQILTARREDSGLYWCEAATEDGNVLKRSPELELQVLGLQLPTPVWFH
Experimental: as §1, §2

Row | relative binding activity | Binder
29 | 7 % of GpH7-B3/GpL16-k0 | B1
30 | 96 % of GpH7-B3/GpL16-k0 | B15
31 | 52 % of GpH7-B3/GpL16-k0 | B2
32 | 11 % of GpH7-B3/GpL16-k0 | B3
33 | 7 % of GpH7-B3/GpL16-k0 | B4
34 | 67 % of GpH7-B3/GpL16-k0 | B5
35 | 8 % of GpH7-B3/GpL16-k0 | B6
36 | 2 % of GpH7-B3/GpL16-k0 | B7
37 | 5 % of GpH7-B3/GpL16-k0 | B8
38 | 69 % of GpH7-B3/GpL16-k0 | B9
39 | 5 % of GpH7-B3/GpL16-k0 | B10
40 | 3 % of GpH7-B3/GpL16-k0 | B11
41 | 28 % of GpH7-B3/GpL16-k0 | B12
42 | 48 % of GpH7-B3/GpL16-k0 | B13
43 | 59 % of GpH7-B3/GpL16-k0 | B14

Biological target: T2, human FcγRIIa(R)
Test: SPR (Biacore);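 also: antibody variants captured on sensor chip, Fcγ receptor flowed over at 25 °C, bound receptor normalized to amount of captured antibody, expressed relative to reference antibody set as 100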
Experimental: as §1, §2

Row | relative binding activity | Binder
44 | 77 % of GpH7-B3/GpL16-k0 | B1
45 | 21 % of GpH7-B3/GpL16-k0 | B15
46 | 1 % of GpH7-B3/GpL16-k0 | B3
47 | 0 % of GpH7-B3/GpL16-k0 | B4
48 | 13 % of GpH7-B3/GpL16-k0 | B5
49 | -1 % of GpH7-B3/GpL16-k0 | B6
50 | -1 % of GpH7-B3/GpL16-k0 | B7
51 | -1 % of GpH7-B3/GpL16-k0 | B8
52 | 19 % of GpH7-B3/GpL16-k0 | B9
53 | -1 % of GpH7-B3/GpL16-k0 | B10
54 | -1 % of GpH7-B3/GpL16-k0 | B11
55 | 2 % of GpH7-B3/GpL16-k0 | B13
56 | 26 % of GpH7-B3/GpL16-k0 | B14

Each binder was assayed against T3, human FcγRIIb (assay: SPR (Biacore)).
Experimental: as §1, §2

Row | relative binding activity | Binder
57 | 13 % of GpH7-B3/GpL16-k0 | B15
58 | 5 % of GpH7-B3/GpL16-k0 | B2
59 | -1 % of GpH7-B3/GpL16-k0 | B3
60 | 0 % of GpH7-B3/GpL16-k0 | B4
61 | 4 % of GpH7-B3/GpL16-k0 | B5
62 | 0 % of GpH7-B3/GpL16-k0 | B6
63 | -2 % of GpH7-B3/GpL16-k0 | B7
64 | -2 % of GpH7-B3/GpL16-k0 | B8
65 | 17 % of GpH7-B3/GpL16-k0 | B9
66 | -1 % of GpH7-B3/GpL16-k0 | B10
67 | -2 % of GpH7-B3/GpL16-k0 | B11
68 | 10 % of GpH7-B3/GpL16-k0 | B12
69 | 1 % of GpH7-B3/GpL16-k0 | B13
70 | 11 % of GpH7-B3/GpL16-k0 | B14
